This note sets out measurements from publication PMC3357558.

Assay [1] has as its target ITK-BTK((SH3)): ITK whose SH3 domain is replaced with the SH3 domain of BTK, fluorescent protein chimera (UniProt P35991). The experiment in a line: co-IP; Jurkat (JTag) cells transfected with GFP-ITK constructs, stimulated or not with 5 ug/mL anti-CD3e OKT3 cross-linked with rabbit anti-mouse IgG for 1 minute at 37°C, lysed; FP-ITK immunoprecipitated with anti-GFP IgG; SLP-76 and ITK immunoblotted; association index by densitometry against the nonstimulated lane. In general terms: A western blot detects proteins with antibodies after separation by electrophoresis.

For assay [2] the target is unchanged.

Chain of UniProt P35991 (P35991 whole entry, stated change not applied, the tested form may be a part): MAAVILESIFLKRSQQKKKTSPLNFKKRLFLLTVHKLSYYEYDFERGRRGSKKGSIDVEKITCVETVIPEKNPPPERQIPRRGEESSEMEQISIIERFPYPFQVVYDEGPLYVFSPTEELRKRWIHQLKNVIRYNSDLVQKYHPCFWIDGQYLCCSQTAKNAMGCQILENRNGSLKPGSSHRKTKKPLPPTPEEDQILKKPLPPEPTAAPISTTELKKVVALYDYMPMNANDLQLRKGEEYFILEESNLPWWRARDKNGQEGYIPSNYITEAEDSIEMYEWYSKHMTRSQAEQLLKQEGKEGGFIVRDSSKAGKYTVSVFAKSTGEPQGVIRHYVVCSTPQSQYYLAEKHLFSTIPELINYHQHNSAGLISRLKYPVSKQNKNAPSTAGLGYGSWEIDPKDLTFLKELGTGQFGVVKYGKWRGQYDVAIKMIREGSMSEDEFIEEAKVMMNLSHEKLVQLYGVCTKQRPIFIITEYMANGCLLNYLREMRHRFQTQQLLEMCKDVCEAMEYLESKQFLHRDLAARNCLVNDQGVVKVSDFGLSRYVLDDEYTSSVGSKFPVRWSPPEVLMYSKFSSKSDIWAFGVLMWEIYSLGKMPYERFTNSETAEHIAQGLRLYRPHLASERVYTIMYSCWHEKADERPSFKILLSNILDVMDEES

B1: SLP-76 (natural protein)
chain: MALRNVPFRSEVLGWDPDSLADYFKKLNYKDCEKAVKKYHIDGARFLNLTENDIQKFPKLRVPILSKLSQEINKNEERRSIFTRKPQVPRFPEETESHEEDNGGWSSFEEDDYESPNDDQDGEDDGDYESPNEEEEAPVEDDADYEPPPSNDEEALQNSILPAKPFPNSNSMYIDRPPSGKTPQQPPVPPQRPMAALPPPPAGRNHSPLPPPQTNHEEPSRSRNHKTAKLPAPSIDRSTKPPLDRSLAPFDREPFTLGKKPPFSDKPSIPAGRSLGEHLPKIQKPPLPPTTERHERSSPLPGKKPPVPKHGWGPDRRENDEDDVHQRPLPQPALLPMSSNTFPSRSTKPSPMNPLPSSHMPGAFSESNSSFPQSASLPPYFSQGPSNRPPIRAEGRNFPLPLPNKPRPPSPAEEENSLNEEWYVSYITRPEAEAALRKINQDGTFLVRDSSKKTTTNPYVLMVLYKDKVYNIQIRYQKESQVYLLGTGLRGKEDFLSVSDIIDYFRKMPLLLIDGKNRGSRYQCTLTHAAGYP
Regarding B1, the reduction of the ITK-SLP-76 association against wild-type ITK in assay [1] amounted to 32%. In assay [2], this molecule returned a TCR-induced tyrosine phosphorylation of ITK-BTK(SH3) in transfected Jurkat cells (anti-ITK IP, antiphosphotyrosine blot), reduction in signal intensity against wild type ITK of 15%.
